Measurements published in patent US20180221438A1, “MODULATING URACIL-DNA GLYCOSYLASE AND USES THEREOF” (Adaerata Limited Partnership, priority 2015, published 2018).

How the values were obtained:
[1] = test system: human DLBCL cell lines; experiment: Growth curves of human DLBCL cell lines; assay type: cell-based; details: DLBCL AID+ (Ocy-Ly3, Ocy-Ly10) and AID− (Ocy-Ly7, Ocy-Ly8) lines expressing Ugi
Protocol: Stable shRNA-mediated knockdowns were generated in CH12F3-2 cells following protocols from the RNAi Consortium (TRC). Transfected cells were selected with puromycin at 1 μg/ml final concentration. For double knockdowns, CH12F3-2 cells were first transfected with a pLKO.1 neomycin version of the shRNA (shAID or shGFP) and selected, then transduced with the second shRNA and selected again with puromycin before analysis. CH12F3 Ugi cells transduced with pMIG-Ugi-IRES-GFP were generated as described ^39, and human lymphoma Ugi cells were generated by retroviral delivery using a pLPC-PURO system (pLPC-Ugi-PURO) and transduced cells were selected with 1 ug/m1 of puromycin. The Ugi protein from bacteriophage PBS2 and its ability to inhibit eukaryotic UNG have been described ^69,31.
The inventors therefore stratified human DLBCL cell lines on the basis of their AID protein levels into high (DLBCL AID^+) (Ocy-Ly3 and Ocy-Ly10 in FIG. 13A) or low expressing (DLBCL AID^−) lines (Ocy-Ly7 and Ocy-Ly8 in FIG. 13A) and established derivatives expressing Ugi for each one.

[2] = molecular target: E. coli UNG (Escherichia coli, UniProt P12295); details: cited from earlier work
[3] = test system: CH12F3-2 cells; experiment: Cloning efficiency of single CH12F3-2 cells; assay type: cell-based, mouse; details: 14 days after single-cell dilution with cytokines to induce CSR to IgA, vs CH12F3-2 GFP
Source text: B cells must expand clonally while expressing AID during the GC reaction. Based on the results described above the inventors asked whether UNG deficiency might limit the proliferation capacity of transformed B-cells expressing AID. To assess the effect of UNG deletion on the proliferation of B-cells expressing AID, the inventors immunized WT and UNG-null mice with a T-dependent antigen to stimulate germinal center (GC) B-cell expansion and AID expression in vivo. The inventors used an AID-GFPtg reporter mouse that allows identifying AID+ GC B-cells in response to immunization ^6,28. […] This reduction was explained by the ˜3-fold smaller average GC size in Ung^−/− versus Ung^+/+ AID-GFPtg mice, rather than any difference in the number of GC (FIGS. 10C-D). […] However, it must be noted that at variance with immunization, which stimulates a few B-cells that need to undergo clonal expansion to form the GC, stimulation in vitro with cytokines causes massive proliferation accompanied by a high level of spontaneous cell death, which likely obscures the additional increase due to UNG-deficiency (not shown). To address this limitation, the inventors evaluated the cloning efficiency of single B-cells. […]

[4] = test system: DLBCL cells; experiment: Metaphases with STL in DLBCL lines; assay type: cell-based, human; details: DLBCL lines expressing GFP or Ugi, and AID or shAID
Protocol: For metaphase analysis cells were incubated with 50 ng/ml colcemide in cell culture media for 3 hours, harvested by trypsinization, incubated for 10 min at RT in 75 mM KCl, and fixed in freshly prepared methanol:glacial acetic acid (3:1 v/v). Cells were stored at 4° C. and when needed dropped onto wet slides and air-dried. For FISH analysis of the metaphases the cells were pre-treated with 0.05% w/v pepsin in 10 mM HCl during 10 minutes at 37° C. After washes with 1X PBS, cells were fixed with 1% formaldehyde in 1X PBS during 10 minutes at RT, washed again with 1X PBS and dehydrated with ethanol series (70-90-100%, 2 min each at RT) and air-dried ON. Then, cells were denatured with hybridization solution (70% deionized formamide; 2.5% 50× Denhardt solution; 10 mM Tris pH 7.5; 1.5 mM MgCl2) containing Alexa488-conjugated PNA probe (Alexa488-OO-(CCCTAA)3) 2 min at 80° C. on a heat block. After 4 hours incubation at RT in the dark, the samples were washed twice with wash solution (70% deionized formamide and 10 mM Tris-HCl [pH 7.2]) at RT and then twice with PBS. For DAPI staining of DNA, slides with metaphase spreads were incubated 10 min in 0.5 ? g/ml 4′, 6-diamino-2-phenylindole (DAPI) (Sigma) in PBS, washed with PBS for 2 min, and mounted in SlowFade™ Gold antifade mounting reagent (Life Technologies). Finally, the samples were analyzed as described above. […]

[5] = test system: CH12F3 cells; experiment: Terminal restriction fragment (TRF) analysis of telomeric DNA in CH12F3 cells; assay type: cell-based, mouse; details: CH12F3 Ugi cells
[6] = molecular target: T1, UNG (Mus musculus, UniProt P97931); experiment: UNG activity assay with CH12F3 cell extracts; assay type: biochemical; details: CH12F3 Ugi cell extracts
T1 construct: endogenous in cells; host or cells: CH12F3 (CH12F3-2) mouse B lymphoma cells, with or without retrovirally expressed Ugi and shRNAs; sonicated whole-cell extract
Protocol: UNG activity assay was performed as previously described ^69 with minor modifications. Briefly, exponentially growing cells were washed in 1X PBS buffer, resuspended in HED buffer (25 mM Hepes, 5 mM EDTA, 1 mM dithiothreitol and 10% glycerol at pH 7.8) with complete protease inhibitors (Roche) and lysed by sonication (five pulses of 30 seconds) in a Bioruptor™ (Diagenode). After centrifugation at 14,000 rcf for 20 min at 4° C., the supernatant was frozen in aliquots into liquid nitrogen and stored at […]. UNG assays were carried out in HED buffer by mixing 10 μg of cell extract with 1 pmol of fluorescein-labeled oligonucleotide substrate in a final volume of 10 μl for 3 hours at 37° C. The double-stranded oligonucleotide with a single dU/dG mismatch was made by annealing 5′-[…](SEQ ID NO: 45)-fluorescein (FITC) to the complementary oligonucleotide, 5′-[…]-3′(SEQ ID NO: 46). The reaction was terminated by the addition of 10 UI of formamide loading dye and the products were resolved on 15% TBE-urea polyacrylamide gels. The apyrimidinic endonuclease (APE) activity present in the extracts was sufficient to cleave all the abasic substrate generated by UNG during the reaction. The FITC signal of the reaction products was visualized using a Typhoon Phosphorlmager™ (GE Healthcare).

Chain of E. coli UNG (P12295 whole entry): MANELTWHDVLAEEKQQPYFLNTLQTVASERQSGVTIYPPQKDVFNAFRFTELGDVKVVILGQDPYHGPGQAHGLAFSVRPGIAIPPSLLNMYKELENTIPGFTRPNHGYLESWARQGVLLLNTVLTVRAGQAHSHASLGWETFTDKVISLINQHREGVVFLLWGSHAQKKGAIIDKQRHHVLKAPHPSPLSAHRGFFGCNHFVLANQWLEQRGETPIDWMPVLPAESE
T1 sequence (P97931 whole entry): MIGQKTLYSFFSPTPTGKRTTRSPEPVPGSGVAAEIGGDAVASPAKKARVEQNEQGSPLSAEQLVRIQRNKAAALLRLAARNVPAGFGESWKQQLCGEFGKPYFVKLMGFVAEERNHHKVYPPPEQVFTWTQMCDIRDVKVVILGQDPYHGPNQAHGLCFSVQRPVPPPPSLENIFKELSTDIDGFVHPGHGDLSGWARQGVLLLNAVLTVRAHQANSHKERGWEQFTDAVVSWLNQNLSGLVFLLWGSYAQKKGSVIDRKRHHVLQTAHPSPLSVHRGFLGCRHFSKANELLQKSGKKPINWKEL

B1: Ugi: Uracil Glycosylase Inhibitor of Bacillus subtilis bacteriophage PBS1/PBS2, small protein (9.5 kDa), SEQ ID NO: 29; expressed in cells by retroviral delivery (protein)
chain: MTNLSDIIEKETGKQLVIQESILMLPEEVEEVIGNKPESDILVHTAYDESTDENVMLLTSDAPEYKPWALVIQDSNGENKIKML
modifications: bacillus subtilis
notes: expressed in cells by retroviral delivery
[1]
  growth of DLBCL cells: only impaired the growth of DLBCL AID+ cells
[2]
  inhibition of UNG: inhibits E. coli UNG as well as UNG from other species
[3]
  cloning capacity: significant decrease in the cloning capacity
[4]
  number of metaphases with STL: significant increase in the number of metaphases with STL only when DLBCL cells expressed AID and Ugi but not with Ugi alone
[5]; DNA treated with exonuclease before TRF analysis
  intra-telomeric G-rich single-stranded DNA: MSH2-dependent increase in intra-telomeric G-rich single-stranded DNA
[5]; terminal restriction fragment analysis
  telomere G-rich 3′ overhang signal: normal telomere G-rich 3′ overhang signal
[6]
  UNG activity: lacked UNG activity
